Test results published in PMC10716038, “Talin and kindlin use integrin tail allostery and direct binding to activate integrins” (Nature Structural & Molecular Biology, 2023).
“And” between values parts separate entries of the source, which are not always exact repeats. Equal values may be shown once. Read-outs that look alike come from different tables or passages of the source.

T1: β3 transmembrane and cytoplasmic tail polypeptide (β3-TM–CT) in nanodiscs (UniProt O54890 715-787, biotin (biotin-maleimide))
T1 chain: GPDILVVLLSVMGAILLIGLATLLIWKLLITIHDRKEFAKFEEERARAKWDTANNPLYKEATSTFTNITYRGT

T2: α5-TM lacking the cytoplasmic domain (tailless α5-TM) in nanodiscs (UniProt P11688 993-1025, biotin (biotin-maleimide))
T2 chain: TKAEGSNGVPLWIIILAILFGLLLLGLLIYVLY

T3: β1 transmembrane and cytoplasmic tail polypeptide (β1-TM–CT) in nanodiscs (UniProt P05556 726-798, biotin (biotin-maleimide))
T3 chain: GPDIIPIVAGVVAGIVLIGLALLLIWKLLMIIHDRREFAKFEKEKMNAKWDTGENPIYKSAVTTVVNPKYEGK

B1: kindlin-2 (KIND2) (natural protein)
chain: MALDGIRMPDGCYADGTWELSVHVTDLNRDVTLRVTGEVHIGGVMLKLVEKLDVKKDWSDHALWWEKKRTWLLKTHWTLDKCGIQADAKLQFTPQHKLLRLQLPNMKYVKVKVNFSDRVFKAVSDICKTFNIRHPEELSLLKKPRDPTKKKKKKLDDQSEDEALELEGPLIMPGSGSIYSSPGLYSKTMTPTYDAHDGSPLSPTSAWFGDSALSEGNPGILAVSQPVTSPEILAKMFKPQALLDKAKTNQGWLDSSRSLMEQDVKENEALLLRFKYYSFFDLNPKYDAIRINQLYEQAKWALLLEEIECTEEEMMMFAALQYHINKLSIMTSENHLNNSDKEVDEVDAALSDLEITLEGGKTSTILGDITSIPELADYIKVFKPKKLTLKGYKQYWCTFKDTSISCYKSREESSGTPAHQLNLRGCEVTPDVNISGQKFNIKLLIPVAEGMNEIWLRCDNEKQYAHWMAACRLASKGKTMADSSYNLEVQNILSFLKMQHLNPDPQLIPDQITTDVNPECLVSPRYLKKYKSKQITARILEAHQNVAQMSLIEAKMRFIQAWQSLPEFGITHFIARFQGGKREELIGIAYNRLIRMDASTGDAIKTWRFSNMKQWNVNWEIKMVTVEFADEVRLSFICTEVDCKVVHEFIGGYIFLSTRAKDQNESLDEEMFYKLTSGWV
B2: kindlin-2 (KIND2) (natural protein)
chain: MALDGIRMPDGCYADGTWELSVHVTDLNRDVTLRVTGEVHIGGVMLKLVEKLDVKKDWSDHALWWEKKRTWLLKTHWTLDKCGIQADAKLQFTPQHKLLRLQLPNMKYVKVKVNFSDRVFKAVSDICKTFNIRHPEELSLLKKPRDPTKKKKKKLDDQSEDEALELEGPLIMPGSGSIYSSPGLYSKTMTPTYDAHDGSPLSPTSAWFGDSALSEGNPGILAVSQPVTSPEILAKMFKPQALLDKAKTNQGWLDSSRSLMEQDVKENEALLLRFKYYSFFDLNPKYDAIRINQLYEQAKWALLLEEIECTEEEMMMFAALQYHINKLSIMTSENHLNNSDKEVDEVDAALSDLEITLEGGKTSTILGDITSIPELADYIKVFKPKKLTLKGYKQYWCTFKDTSISCYKSREESSGTPAHQLNLRGCEVTPDVNISGQKFNIKLLIPVAEGMNEIWLRCDNEKQYAHWMAACRLASKGKTMADSSYNLEVQNILSFLKMQHLNPDPQLIPDQITTDVNPECLVSPRYLKKYKSKQITARILEAHQNVAQMSLIEAKMRFIQAWQSLPEFGITHFIARFQGGKREELIGIAYNRLIRMDASTGDAIKTWRFSNMKQWNVNWEIKMVTVEFADEVRLSFICTEVDCKVVHEFIGGYIFLSTRAKDQNESLDEEMFYKLTSGWV
B3: talin-1 head domain (THD1) (domain or fragment)
chain: MVALSLKISIGNVVKTMQFEPSTMVYDACRMIRERIPEALAGPPNDFGLFLSDDDPKKGIWLEAGKALDYYMLRNGDTMEYRKKQRPLKIRMLDGTVKTIMVDDSKTVTDMLMTICARIGITNHDEYSLVRELMEEKKDEGTGTLRKDKTLLRDEKKMEKLKQKLHTDDELNWLDHGRTLREQGVEEHETLLLRRKFFYSDQNVDSRDPVQLNLLYVQARDDILNGSHPVSFDKACEFAGFQCQIQFGPHNEQKHKAGFLDLKDFLPKEYVKQKGERKIFQAHKNCGQMSEIEAKVRYVKLARSLKTYGVSFFLVKEKMKGKNKLVPRLLGITKECVMRVDEKTKEVIQEWSLTNIKRWAASPKSFTLDFGDYQDGYYSVQTTEGEQIAQLIAGYIDIILKKKKS

Legend:
[1] = molecular target: ATTO 488-labelled β1-CT (488–β1-CT) (UniProt P05556); experiment: MST; ATTO 488-labelled β-CT peptide (50–200 nM) held constant, one unlabelled protein titrated; 20 mM Tris pH 7.5, 200 mM NaCl, 1 mM TCEP, 0.05% Tween-20; apparent affinities (near-saturation only)
[2] = molecular target: ATTO 488-labelled β1-CT^Y783A (UniProt P05556); experiment: as above
ATTO 488-labelled β1-CT^Y783A, sequence (P05556 752-798 Y783A): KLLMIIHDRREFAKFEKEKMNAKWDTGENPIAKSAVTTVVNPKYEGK

[3] = molecular target: ATTO 488-labelled β1-CT^Y795A (UniProt P05556); experiment: as above
ATTO 488-labelled β1-CT^Y795A, sequence (P05556 752-798 Y795A): as the sequence (P05556 752-798 Y783A) above, with A32Y, Y44A counted along it

[4] = molecular target: ATTO 488-labeled β1–spacer–CT (UniProt P09055); experiment: MST; apparent; THD1 titrated to 488–β1-spacer-CT in the presence of 30-35 µM KIND2; MST buffer
[5] = molecular target: ATTO 488-labeled β1–spacer–CT (UniProt P09055); experiment: MST; unlabelled protein titrated to 50-200 nM ATTO 488-labelled β-CT peptide, no third protein; 20 mM Tris pH 7.5, 200 mM NaCl, 1 mM TCEP, 0.05% Tween-20; Kd of individual titrations (in S0002 mean and sd, n = 2)
[6] = molecular target: ATTO 488-labelled β1–spacer–CT (UniProt P05556); experiment: MST; as a7, with a second unlabelled protein present at near-saturating concentration (named in the quantity or in the printed words); apparent constants (Kd,app*)
[7] = molecular target: ATTO 488-labelled β1–spacer–CT (UniProt P05556); experiment: MST; ATTO 488-labelled β-CT peptide (50–200 nM) held constant, one unlabelled protein titrated; 20 mM Tris pH 7.5, 200 mM NaCl, 1 mM TCEP, 0.05% Tween-20; apparent affinities (near-saturation only)
[8] = molecular target: β1-TM–CT Y783A (THD1-binding impaired) in nanodiscs (UniProt P09055); experiment: flow cytometry-based reporter-displacement assay (FC-RDA) on beads; biotinylated TM–CT in 10% PIP3/90% DMPC nanodiscs on streptavidin beads; reporter 50 nM 647–KIND2, unlabelled competitor titrated; 20 mM Tris pH 7.5, 200 mM NaCl, room temperature; IC50 of individual experiments; charged lipids contribute to the binding
[9] = molecular target: ATTO 488-labeled β1–spacer–CT (UniProt P09055); experiment: MST; unlabelled protein titrated to 50-200 nM ATTO 488-labelled β-CT peptide, no third protein; 20 mM Tris pH 7.5, 200 mM NaCl, 1 mM TCEP, 0.05% Tween-20; Kd of individual titrations (in S0002 mean and sd, n = 2); remark: listed apart in the source
[10] = molecular target: ATTO 488-labelled β1–spacer–CT (UniProt P05556); experiment: MST; ATTO 488-labelled β-CT peptide (50–200 nM) held constant, one unlabelled protein titrated; 20 mM Tris pH 7.5, 200 mM NaCl, 1 mM TCEP, 0.05% Tween-20; apparent affinities (near-saturation only); remark: listed apart in the source
[11] = molecular target: ATTO 488-labeled β1–spacer–CT (UniProt P09055); experiment: MST; apparent; KIND2-Y13A titrated to 488–β3-CT or KIND2 to 488–β1-spacer-CT in the presence of 300-400 µM THD1; MST buffer
[12] = molecular target: T1, β3 transmembrane and cytoplasmic tail …; experiment: FACS; 10% PIP2 nanodiscs
[13] = molecular target: T2, α5-TM lacking the cytoplasmic domain …; experiment: FACS; 10% PIP2 nanodiscs
[14] = molecular target: T3, β1 transmembrane and cytoplasmic tail …; experiment: FACS; 10% PIP2 nanodiscs
[15] = molecular target: T4, β1-TM–CT Y795A (KIND2-binding impaired) in nanodiscs (UniProt P09055 726-798, Y795A, biotin (biotin-maleimide)); experiment: FACS; 10% PIP2 nanodiscs
[16] = molecular target: T5, β1-TM–CT Y783A (THD1-binding impaired) in nanodiscs (UniProt P09055 726-798, Y783A, biotin (biotin-maleimide)); experiment: FACS; 10% PIP2 nanodiscs
[17] = molecular target: T2, α5-TM lacking the cytoplasmic domain …; experiment: FACS; 10% PIP3 nanodiscs
[18] = molecular target: T3, β1 transmembrane and cytoplasmic tail …; experiment: FACS; 10% PIP3 nanodiscs
[19] = molecular target: T4, β1-TM–CT Y795A (KIND2-binding impaired) …; experiment: FACS; 10% PIP3 nanodiscs
[20] = molecular target: T5, β1-TM–CT Y783A (THD1-binding impaired) …; experiment: FACS; 10% PIP3 nanodiscs
[21] = molecular target: T1, β3 transmembrane and cytoplasmic tail …; experiment: FACS; 10% PIP3 nanodiscs

Molecule	IC50 [12] [nM]	IC50 [13] [nM]	IC50 [14] [nM]	IC50 [15] [nM]	IC50 [16] [nM]	IC50 [17] [nM]	IC50 [18] [nM]	IC50 [20] [nM]	also measured
TLN1-F3–ΔKIND2 fusion protein	–	–	–	–	–	–	–	–	Kd of the kindlin contribution (fit of concentrations up to 5 µM) [1]: 2900 nM; Kd of the talin contribution (fit of concentrations above 5 µM) [1]: 25000 nM; Kd [2]: 4800 nM; Kd [3]: 470000 nM
talin-1 head domain (THD1) (from UniProt P26039 1-405) (domain or fragment)	–	–	–	–	–	–	–	–	Kd [4]: 254000 nM and 320000 nM and 262000 nM; Kd [5]: 178000 nM and 171000 nM and 193000 nM; apparent Kd (Kd,app*) in the presence of KIND2 [6]: 279000 nM; Kd [7]: 181000 nM
B1	–	–	–	–	–	–	–	–	IC50 [8]: 297 nM and 278 nM and 387 nM; Kd [9]: 5470 nM and 5420 nM and 5120 nM; apparent Kd (Kd,app*) in the presence of THD1 [6]: 6000 nM; Kd [10]: 5000 nM; Kd [11]: 6090 nM and 3020 nM and 8050 nM
B2	95	444	120	370	117	471	102	255	IC50 [19]: 162 nM
B3	66	274	73	98	307	411	92	427	IC50 [21]: 83 nM
